Measured values published in the Human Domainome abundance scans (Beltran et al. 2025).
± gives the uncertainty stated by the source.

Experiment: abundance fitness (aPCA) (normalised: wild type 0, dead -1); higher = more abundant; growth selection in yeast, the domain comes from the species named
Conditions: Homo sapiens
With Transcription factor SOX-4 R96S, Q06945 the abundance fitness was -0.162 ± 0.17.
“Transcription factor SOX-4 K101T, Q06945” showed an abundance fitness of -0.029 ± 0.065.
Work on Transcription factor SOX-4 M84L, Q06945 yielded an abundance fitness of 0.014 ± 0.055.

Same assay, conditions: Saccharomyces cerevisiae (strain ATCC 204508 / S288c)
“E3 ubiquitin-protein ligase RSP5 P343T, P39940” gave an abundance fitness of 0.014 ± 0.057.
“E3 ubiquitin-protein ligase RSP5 R340L, P39940” gave an abundance fitness of 0.078 ± 0.055.
With “E3 ubiquitin-protein ligase RSP5 G329T, P39940” the abundance fitness was 0.063 ± 0.071.
“E3 ubiquitin-protein ligase RSP5 W359G, P39940” gave an abundance fitness of -0.441 ± 0.045.
“E3 ubiquitin-protein ligase RSP5 E338K, P39940” gave an abundance fitness of -0.463 ± 0.049.
For “E3 ubiquitin-protein ligase RSP5 Q366R, P39940”, the abundance fitness was 0.117 ± 0.053.
For “E3 ubiquitin-protein ligase RSP5 V360F, P39940”, the abundance fitness was 0.058 ± 0.11.
“E3 ubiquitin-protein ligase RSP5 S335C, P39940” gave an abundance fitness of -0.147 ± 0.07.
With “E3 ubiquitin-protein ligase RSP5 Y348V, P39940” the abundance fitness was -0.585 ± 0.048.
“E3 ubiquitin-protein ligase RSP5 T356S, P39940” showed an abundance fitness of 0.034 ± 0.05.
Substance “E3 ubiquitin-protein ligase RSP5 T354S, P39940” has an abundance fitness of -0.049 ± 0.049.
With “E3 ubiquitin-protein ligase RSP5 R346P, P39940” the abundance fitness was -0.165 ± 0.049.
Work on “E3 ubiquitin-protein ligase RSP5 P343W, P39940” yielded an abundance fitness of -0.313 ± 0.054.
For “E3 ubiquitin-protein ligase RSP5 S335W, P39940”, the abundance fitness was -0.278 ± 0.064.
Substance “E3 ubiquitin-protein ligase RSP5 E332H, P39940” has an abundance fitness of -0.551 ± 0.13.
“E3 ubiquitin-protein ligase RSP5 P362V, P39940” gave an abundance fitness of -0.705 ± 0.048.
With “E3 ubiquitin-protein ligase RSP5 T356Y, P39940” the abundance fitness was -0.381 ± 0.12.
For “E3 ubiquitin-protein ligase RSP5 R340C, P39940”, the abundance fitness was 0.064 ± 0.059.
“E3 ubiquitin-protein ligase RSP5 L333W, P39940” showed an abundance fitness of -0.331 ± 0.052.
Substance “E3 ubiquitin-protein ligase RSP5 H352K, P39940” has an abundance fitness of -0.176 ± 0.074.
Substance “E3 ubiquitin-protein ligase RSP5 L330Y, P39940” has an abundance fitness of -0.003 ± 0.08.
For “E3 ubiquitin-protein ligase RSP5 V350N, P39940”, the abundance fitness was -0.49 ± 0.095.
With “E3 ubiquitin-protein ligase RSP5 L333S, P39940” the abundance fitness was -0.654 ± 0.053.
Work on “E3 ubiquitin-protein ligase RSP5 G331F, P39940” yielded an abundance fitness of -0.126 ± 0.084.
For “E3 ubiquitin-protein ligase RSP5 T342K, P39940”, the abundance fitness was -0.824 ± 0.058.
Work on “E3 ubiquitin-protein ligase RSP5 V350E, P39940” yielded an abundance fitness of -0.346 ± 0.057.
With “E3 ubiquitin-protein ligase RSP5 T357P, P39940” the abundance fitness was -0.77 ± 0.073.
“E3 ubiquitin-protein ligase RSP5 T358H, P39940” gave an abundance fitness of -0.411 ± 0.076.
“E3 ubiquitin-protein ligase RSP5 Q365L, P39940” showed an abundance fitness of 0.033 ± 0.058.
For “E3 ubiquitin-protein ligase RSP5 V350R, P39940”, the abundance fitness was -0.546 ± 0.042.
Work on “E3 ubiquitin-protein ligase RSP5 L330C, P39940” yielded an abundance fitness of 0.05 ± 0.062.
“E3 ubiquitin-protein ligase RSP5 E344V, P39940” gave an abundance fitness of -0.308 ± 0.054.
Substance “E3 ubiquitin-protein ligase RSP5 T326E, P39940” has an abundance fitness of 0.055 ± 0.052.
Work on “E3 ubiquitin-protein ligase RSP5 L333P, P39940” yielded an abundance fitness of -0.63 ± 0.054.
“E3 ubiquitin-protein ligase RSP5 V350L, P39940” showed an abundance fitness of 0.028 ± 0.048.
Substance “E3 ubiquitin-protein ligase RSP5 N353W, P39940” has an abundance fitness of -0.44 ± 0.061.
“E3 ubiquitin-protein ligase RSP5 S335L, P39940” gave an abundance fitness of -0.202 ± 0.046.
For “E3 ubiquitin-protein ligase RSP5 W337K, P39940”, the abundance fitness was -0.713 ± 0.073.
Work on “E3 ubiquitin-protein ligase RSP5 G329F, P39940” yielded an abundance fitness of -0.026 ± 0.091.
Substance “E3 ubiquitin-protein ligase RSP5 G336F, P39940” has an abundance fitness of -0.544 ± 0.067.
For “E3 ubiquitin-protein ligase RSP5 S328M, P39940”, the abundance fitness was 0.099 ± 0.067.
For “E3 ubiquitin-protein ligase RSP5 Q339K, P39940”, the abundance fitness was 0.026 ± 0.077.
Work on “E3 ubiquitin-protein ligase RSP5 Q365E, P39940” yielded an abundance fitness of 0.057 ± 0.059.
Substance “E3 ubiquitin-protein ligase RSP5 P362G, P39940” has an abundance fitness of -0.852 ± 0.044.
In the case of “E3 ubiquitin-protein ligase RSP5 F349Y, P39940”, the abundance fitness is reported as 0.086 ± 0.072.
With “E3 ubiquitin-protein ligase RSP5 R355I, P39940” the abundance fitness was -0.35 ± 0.086.
Substance “E3 ubiquitin-protein ligase RSP5 T326I, P39940” has an abundance fitness of -0.266 ± 0.2.
In the case of “E3 ubiquitin-protein ligase RSP5 G336Y, P39940”, the abundance fitness is reported as -0.815 ± 0.19.
“E3 ubiquitin-protein ligase RSP5 E338S, P39940” gave an abundance fitness of -0.19 ± 0.046.
Work on “E3 ubiquitin-protein ligase RSP5 R340K, P39940” yielded an abundance fitness of 0.133 ± 0.081.
Work on “E3 ubiquitin-protein ligase RSP5 S335K, P39940” yielded an abundance fitness of -0.049 ± 0.045.
“E3 ubiquitin-protein ligase RSP5 W337N, P39940” gave an abundance fitness of -0.641 ± 0.14.
In the case of “E3 ubiquitin-protein ligase RSP5 T326P, P39940”, the abundance fitness is reported as -0.652 ± 0.079.
“E3 ubiquitin-protein ligase RSP5 P362A, P39940” gave an abundance fitness of -0.747 ± 0.046.
Work on “E3 ubiquitin-protein ligase RSP5 T358K, P39940” yielded an abundance fitness of -0.658 ± 0.12.
“E3 ubiquitin-protein ligase RSP5 G325M, P39940” showed an abundance fitness of 0.137 ± 0.095.
“E3 ubiquitin-protein ligase RSP5 S328A, P39940” gave an abundance fitness of -0.172 ± 0.046.
With “E3 ubiquitin-protein ligase RSP5 Q339H, P39940” the abundance fitness was -0.134 ± 0.058.
“E3 ubiquitin-protein ligase RSP5 G336Q, P39940” gave an abundance fitness of -0.271 ± 0.079.
For “E3 ubiquitin-protein ligase RSP5 E332I, P39940”, the abundance fitness was -0.225 ± 0.087.
In the case of “E3 ubiquitin-protein ligase RSP5 Q339I, P39940”, the abundance fitness is reported as -0.073 ± 0.069.
For “E3 ubiquitin-protein ligase RSP5 R364V, P39940”, the abundance fitness was 0.035 ± 0.049.
“E3 ubiquitin-protein ligase RSP5 N353F, P39940” showed an abundance fitness of -0.323 ± 0.11.
For “E3 ubiquitin-protein ligase RSP5 P334H, P39940”, the abundance fitness was -0.658 ± 0.078.
In the case of “E3 ubiquitin-protein ligase RSP5 G325I, P39940”, the abundance fitness is reported as 0.018 ± 0.092.
Substance “E3 ubiquitin-protein ligase RSP5 R364A, P39940” has an abundance fitness of 0.113 ± 0.055.
Substance “E3 ubiquitin-protein ligase RSP5 E344S, P39940” has an abundance fitness of -0.168 ± 0.048.
“E3 ubiquitin-protein ligase RSP5 H352G, P39940” showed an abundance fitness of -0.229 ± 0.04.
“E3 ubiquitin-protein ligase RSP5 G345C, P39940” gave an abundance fitness of -0.364 ± 0.06.
“E3 ubiquitin-protein ligase RSP5 P334S, P39940” showed an abundance fitness of -0.582 ± 0.053.
With “E3 ubiquitin-protein ligase RSP5 L330E, P39940” the abundance fitness was 0.013 ± 0.063.
Work on “E3 ubiquitin-protein ligase RSP5 T354E, P39940” yielded an abundance fitness of -0.163 ± 0.054.
With “E3 ubiquitin-protein ligase RSP5 R364I, P39940” the abundance fitness was -0.088 ± 0.11.
“E3 ubiquitin-protein ligase RSP5 F349P, P39940” gave an abundance fitness of -0.804 ± 0.08.
Substance “E3 ubiquitin-protein ligase RSP5 L330M, P39940” has an abundance fitness of 0.089 ± 0.073.
“E3 ubiquitin-protein ligase RSP5 T357Y, P39940” gave an abundance fitness of -0.955 ± 0.31.
“E3 ubiquitin-protein ligase RSP5 G325H, P39940” gave an abundance fitness of -0.035 ± 0.099.
Substance “E3 ubiquitin-protein ligase RSP5 R346A, P39940” has an abundance fitness of 0.121 ± 0.05.
With “E3 ubiquitin-protein ligase RSP5 S335T, P39940” the abundance fitness was -0.247 ± 0.087.
In the case of “E3 ubiquitin-protein ligase RSP5 G325A, P39940”, the abundance fitness is reported as -0.046 ± 0.051.
“E3 ubiquitin-protein ligase RSP5 T357L, P39940” gave an abundance fitness of -0.488 ± 0.08.
Work on “E3 ubiquitin-protein ligase RSP5 T327N, P39940” yielded an abundance fitness of 0.12 ± 0.12.
For “E3 ubiquitin-protein ligase RSP5 T356D, P39940”, the abundance fitness was -0.405 ± 0.08.
“E3 ubiquitin-protein ligase RSP5 T357H, P39940” showed an abundance fitness of -0.578 ± 0.16.
Work on “E3 ubiquitin-protein ligase RSP5 A347H, P39940” yielded an abundance fitness of -0.048 ± 0.056.
In the case of “E3 ubiquitin-protein ligase RSP5 W337E, P39940”, the abundance fitness is reported as -0.525 ± 0.066.
“E3 ubiquitin-protein ligase RSP5 T358S, P39940” showed an abundance fitness of -0.028 ± 0.058.
For “E3 ubiquitin-protein ligase RSP5 S328D, P39940”, the abundance fitness was 0.126 ± 0.074.
Work on “E3 ubiquitin-protein ligase RSP5 G345L, P39940” yielded an abundance fitness of -0.303 ± 0.062.
For “E3 ubiquitin-protein ligase RSP5 E338G, P39940”, the abundance fitness was -0.454 ± 0.045.
With “E3 ubiquitin-protein ligase RSP5 T327Q, P39940” the abundance fitness was -0.112 ± 0.057.
For “E3 ubiquitin-protein ligase RSP5 T327Y, P39940”, the abundance fitness was -0.639 ± 0.27.
In the case of “E3 ubiquitin-protein ligase RSP5 Q339R, P39940”, the abundance fitness is reported as -0.051 ± 0.043.
“E3 ubiquitin-protein ligase RSP5 P362T, P39940” gave an abundance fitness of -0.708 ± 0.067.
Work on “E3 ubiquitin-protein ligase RSP5 E344N, P39940” yielded an abundance fitness of -0.032 ± 0.081.
Substance “E3 ubiquitin-protein ligase RSP5 G345M, P39940” has an abundance fitness of -0.14 ± 0.074.
Substance “E3 ubiquitin-protein ligase RSP5 E332R, P39940” has an abundance fitness of -0.36 ± 0.043.
Substance “E3 ubiquitin-protein ligase RSP5 T327A, P39940” has an abundance fitness of -0.049 ± 0.046.
